This experiment concerns the target T1, recombinant canine IL-13 (canine, UniProt Q9N0W9 21-131, limits assumed).
T1 sequence (looked up): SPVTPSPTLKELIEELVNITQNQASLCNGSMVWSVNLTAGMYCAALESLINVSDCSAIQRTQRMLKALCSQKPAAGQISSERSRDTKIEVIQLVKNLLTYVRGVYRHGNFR
Nature of the experiment: cell-based or functional assay.

B1: PCaIL-13Rα2-Fc-B9563 (Fc fusion)
chain: MSMLSNAEIKVNPPQDFEIVDPGYLGYLSLQWQPPLFPDNFKECTIEYELKYRNIDSENWKTIITKNLHYKDGFDLNKGIEAKINTLLPAQCTNGSEVRSSWAETTYWTSPQGNRETKIQDMDCVYYNWQYLVCSWKPGMGVHFDTNYQLFYWYEGLDHSAECTDYIKVNGKNMGCRFPYLESSDYKDFYICVNGSSESQPIRPSYFIFQLQNIVKPMPPDYLSLTVKNSEEINLKWNMPKGPIPAKCFIYEIEFTEDGTTWVTTTVENEIQITRTSNESQKLCFLVRSKVNIYCSDDGIWSEWSDEQCWKGDIWKETGSNTKVDKPVAKECECKCNCNNCPCPGCGLLGGPSVFIFPPKPKDILVTARTPTVTCVVVDLDPENPEVQISWFVDSKQVQTANTQPREEQSNGTYRVVSVLPIGHQDWLSGKQFKCKVNNKALPSPIEEIISKTPGQAHQPNVYVLPPSRDEMSKNTVTLTCLVKDFFPPEIDVEWQSNGQQEPESKYRMTPPQLDEDGSYFLYSKLSVDKSRWQRGDTFICAVMHEALHNHYTQISLSHSPGK
For B1, the “Percent inhibition of IL-13 stimulated TF-1 cell proliferation; IL-13 at 10 ng/ml; fusion protein 6.6 ug/ml; refolding condition 1A” value amounted to 30.9%, the “Percent inhibition of IL-13 stimulated TF-1 cell proliferation; IL-13 at 10 ng/ml; fusion protein 6.6 ug/ml; refolding condition 1B” value turned out to be 43.7%, the “Percent inhibition of IL-13 stimulated TF-1 cell proliferation; IL-13 at 10 ng/ml; fusion protein 6.6 ug/ml; refolding condition 1C” value was determined as 100% and the “Percent inhibition of IL-13 stimulated TF-1 cell proliferation; IL-13 at 10 ng/ml; fusion protein 6.6 ug/ml; refolding condition 1D” value stood at 99.8%. Moreover, the “Percent inhibition of IL-13 stimulated TF-1 cell proliferation; IL-13 at 10 ng/ml; fusion protein 6.6 ug/ml; refolding condition 2A” value was 35.1%, the “Percent inhibition of IL-13 stimulated TF-1 cell proliferation; IL-13 at 10 ng/ml; fusion protein 6.6 ug/ml; refolding condition 2B” value worked out at 18%, the “Percent inhibition of IL-13 stimulated TF-1 cell proliferation; IL-13 at 10 ng/ml; fusion protein 6.6 ug/ml; refolding condition 2C” value amounted to 16% and the “Percent inhibition of IL-13 stimulated TF-1 cell proliferation; IL-13 at 10 ng/ml; fusion protein 6.6 ug/ml; refolding condition 2D” value stood at 7.5%. Besides, the “Percent inhibition of IL-13 stimulated TF-1 cell proliferation; IL-13 at 10 ng/ml; fusion protein 6.6 ug/ml; refolding condition 3A” value is 81.3%, the “Percent inhibition of IL-13 stimulated TF-1 cell proliferation; IL-13 at 10 ng/ml; fusion protein 6.6 ug/ml; refolding condition 3B” value came out at 96.3%, the “Percent inhibition of IL-13 stimulated TF-1 cell proliferation; IL-13 at 10 ng/ml; fusion protein 6.6 ug/ml; refolding condition 3C” value amounted to 98.9% and the “Percent inhibition of IL-13 stimulated TF-1 cell proliferation; IL-13 at 10 ng/ml; fusion protein 6.6 ug/ml; refolding condition 3D” value was 49.9%. In addition, the “Percent inhibition of IL-13 stimulated TF-1 cell proliferation; IL-13 at 50 ng/ml; fusion protein 6.6 ug/ml; refolding condition 1A” value is 29.4%, the “Percent inhibition of IL-13 stimulated TF-1 cell proliferation; IL-13 at 50 ng/ml; fusion protein 6.6 ug/ml; refolding condition 1B” value stood at 34.6%, the “Percent inhibition of IL-13 stimulated TF-1 cell proliferation; IL-13 at 50 ng/ml; fusion protein 6.6 ug/ml; refolding condition 1C” value came to 92.3% and the “Percent inhibition of IL-13 stimulated TF-1 cell proliferation; IL-13 at 50 ng/ml; fusion protein 6.6 ug/ml; refolding condition 1D” value amounted to 31.7%. In addition, the “Percent inhibition of IL-13 stimulated TF-1 cell proliferation; IL-13 at 50 ng/ml; fusion protein 6.6 ug/ml; refolding condition 2A” value worked out at 19.7%, the “Percent inhibition of IL-13 stimulated TF-1 cell proliferation; IL-13 at 50 ng/ml; fusion protein 6.6 ug/ml; refolding condition 2B” value was 24%, the “Percent inhibition of IL-13 stimulated TF-1 cell proliferation; IL-13 at 50 ng/ml; fusion protein 6.6 ug/ml; refolding condition 2C” value turned out to be 11.9% and the “Percent inhibition of IL-13 stimulated TF-1 cell proliferation; IL-13 at 50 ng/ml; fusion protein 6.6 ug/ml; refolding condition 2D” value came out at 28.8%. Besides, the “Percent inhibition of IL-13 stimulated TF-1 cell proliferation; IL-13 at 50 ng/ml; fusion protein 6.6 ug/ml; refolding condition 3A” value came out at 44.7%, the “Percent inhibition of IL-13 stimulated TF-1 cell proliferation; IL-13 at 50 ng/ml; fusion protein 6.6 ug/ml; refolding condition 3B” value was determined as 92.5%, the “Percent inhibition of IL-13 stimulated TF-1 cell proliferation; IL-13 at 50 ng/ml; fusion protein 6.6 ug/ml; refolding condition 3C” value was 95.4% and the “Percent inhibition of IL-13 stimulated TF-1 cell proliferation; IL-13 at 50 ng/ml; fusion protein 6.6 ug/ml; refolding condition 3D” value turned out to be 32.7%.

The values above are taken from patent US20020165135A1 (HESKA, published 2002).
